Measurements taken from the DeepSol protein solubility set.

Test: soluble on expression in E. coli; label from the status in PepcDB or PDB records

**Q.** For “MGSDKIHHHHHHMAENWKNCFEEELICPICLHVFVEPVQLPCKHNFCRGCIGEAWAKDSGLVRCPECNQAYNQKPGLEKNLKLTNIVEKFNALHVEKPPAALHCVFCRRGPPLPAQKVCLRCEAPCCQSHVQTHLQQPSTARGHLLVEADDVRAWSCPQHNAYRLYHCEAEQVAVCQYCCYYSGAHQGHSVCDVEIRRNEIRKMLMKQQDRLEEREQDIEDQLYKLESDKRLVEEKVNQLKEEVRLQYEKLHQLLDEDLRQTVEVLDKAQAKFCSENAAQALHLGERMQEAKKLLGSLQLLFDKTEDVSFMKNTKSVKILMDRTQTCTSSSLSPTKIGHLNSKLFLNEVAKKEKQLRKMLEGPFSTPVPFLQSVPLYPCGVSSSGAEKRKHSTAFPEASFLETSSGPVGGQYGAAGTASGEGQSGQPLGPCSSTQHLVALPGGAQPVHSSPVFPPSQYPNGSAAQQPMLPQYGGRKILVCSVDNCYCSSVANHGGHQPYPRSGHFPWTVPSQEYSHPLPPTPSVPQSLPSLAVRDWLDASQQPGHQDFYRVYGQPSTKHYVTS”, which “soluble on expression in E. coli” value is on record?
**A.** not soluble

**Q.** Which “soluble on expression in E. coli” value does the source give for “MSIVPGVVHSLYGDAKARWTINEYADLECPFCKVYTPRLKRWVDSHTDVNLVWRHLPLQMHGEAARHQARLVECAGIQGGAKAFWSAIDAIFAQSAGNGGGLPGGTLDFPDLDQARLEKCAKDMDLVDQLIKTDIDTARSNGITATPTLVIQDNQTGRSVKLEGMADETTLLSAIDWLAKDL” here?
**A.** not soluble

**Q.** Which “soluble on expression in E. coli” value does the source give for “MEKPIIRGYIRENGSVGVRNYVAVIPVDDLSNSASIGVSKLIRGTVAIPHPYGRLQFGKDLDLLFHVLSGTGANPNVAAAIVIGIEENWANKVADKIAETGKPVEVFPVEGNGDLKVIEKASRKAKEFVQEASEKQRTEVDLSSLVLSIKCGESDTTSGLASNPATGYAVDKLIDYGSTVMFGETSELTGAEDIVASRIQDPVLRDKFMRIYNEYVAFIESQGVDLLGSQPTEGNIKGGLSTIEEKALGNIQKLGTKPITCVLDYLDPLGKGSSRLCFVNTSSAAAEAVTLFAAKGSVLHLFTTGQGNVVGHPIIPVVKISANPKTIATMSEHIDVDVSDLLQLKVSLKEAGERIFNYTIRVANGRLTSAEILQHEEFSPIKLYISA” here?
**A.** not soluble

**Q.** For “YSLYNPLKEAELQIEATRAEHERNQQAYNQLQATDISRQVQHDSDATRQALQAWQNSQTELARIDSQVQYLSAQLKQTDPLTGILTRAQNLCAAQGYSADICRQVAKAADTNDLTLFETELDTYIERVEMAESELDKARQGGDAQAVETARHAYLNALNRLSRQIHSLKTGVAGIRMPNLAELISRSANTAVSEQAAYNTGRQQAGRRIDRHLTDPQQQNIWLETGTQQTDYHSGTHRPYQQTTNYAHIGIQTGITDRLSVGTILTDERTNNRFDEGVSARNRSNGAHLFVKGENGALFAAADLGYSNSRTRFTDYDGAAVRRHAWDAGINTGIKIDTGINLRPYAGIRINRSNGNRYVLDGAEINSPAQIQTTWHAGIRLDKTVELGQAKLTPAFSSDYYHTRQNSGSALSVNDRTLLQQAAHGTLHTLQIDAGYKGWNAKLHAAYGKDSNTARHKQAGIKIGYNW”, which “soluble on expression in E. coli” value is on record?
**A.** not soluble

**Q.** Which “soluble on expression in E. coli” value does the source give for “MALEYVVTKRVFGFDKDKNEKYVAKSVRSGRVSFSKMCGKVSRLCGVHRKVVDLVVSGLVDMMAEDIDDGKSVQMGEFGIFSPTIRAKSADDEKEVSSKSIVQRKILFYPGKIFKTTLDDMSITRRAELDTDYTDGSSNNGSGSEKPNPGGDGGKDDEEAPDPTV” here?
**A.** not soluble

**Q.** Which “soluble on expression in E. coli” value does the source give for “MDVVEVAGSWWAQEREDIIMKYEKGHRAGLPEDKGPKPFRSYNNNVDHLGIVHETELPPLTAREAKQIRREISRKSKWVDMLGDWEKYKSSRKLIDRAYKGMPMNIRGPMWSVLLNTEEMKMKNPGRYQIMKEKGKRSSEHIQRIDRDVSGTLRKHIFFRDRYGTKQRELLHILLAYEEYNPEVGYCRDLSHIAALFLLYLPEEDAFWALVQLLASERHSLQGFHSPNGGTVQGLQDQQEHVVATSQPKTMGHQSASRRRPGVARGHVFATGSLIPGPGMRTLCSSILGPL” here?
**A.** not soluble

**Q.** With “MKRKVSVYDSSKDKTLGQVVKGESPIWIRVAMAILRVWFFIYDCLNYLPYQLFNSPTEKLRKSERVKANWVDDRDGPIRNIQGHASETFPGKDTVDKVWRKCVELYDESPCLGTRQLIEVHEDKQPGGRVFEKWHLGEYVWQSYKEVETQVARLAAGIKDLAHEEQNPKVVIFAETRADWLITALACFRANVTIVTVYATLGEDAIAHAIGETEATILVTSSELLPKIVTLGKKCPTLKTLIYFAPVDQKAPAPELAPFRDQFKHVLSLSGLLTRNQEQVKESTAVKSDIALIMYTSGTTGQPKGVILLHQNVVAALLGQGDGVGIICNADTYIGYLPLAHILELDAELTCLTKGAKVGYSSPLTLHDRASKIQKGTHGDCHALRPTLMAAVPAIMDRIFKAVSEEVAASPRFMQELFKLNYERKRSRYLEGYCSPFLDRIVFKKIRRLLGGKLRGVLSGGAPLNAETQRFMNICMCCPVVQGYGLTETCGAACVADINDLSTGTVGPPVRCSDIALREWSEGGYSPFNDPPQGEILISGENISPGYYKQPEKTAEDFITYKGKVYFATGDIGQKRDDGSLLIIDRKKDLVKLQHGEYVSLAKVECALLNCPIVDNICVYGSGMEDSVVALVVPNQKHLEKIAEAEGVSTSEMKTMCEDKKVIAAYKKQLEEHAKKSKLSRSEIPAAIHLCPEIWTPDTGLLTEALKLKRKPIQMAYQKTLDDLYKQLKKN” as the sequence, how does the “soluble on expression in E. coli” value read?
**A.** not soluble

**Q.** For “MGSDKIHHHHHHMKELIRKLTEAFGPSGREEEVRSIILEELEGHIDGHRIDGLGNLIVWKGSGEKKVILDAHIDEIGVVVTNVDDKGFLTIEPVGGVSPYMLLGKRIRFENGTIGVVGMEGETTEERQENVRKLSFDKLFIDIGANSREEAQKMCPIGSFGVYDSGFVEVSGKYVSKAMDDRIGCAVIVEVFKRIKPAVTLYGVFSVQEEVGLVGASVAGYGVPADEAIAIDVTDSADTPKAIKRHAMRLSGGPALKVKDRASISSKRILENLIEIAEKFDIKYQMEVLTFGGTNAMGYQRTREGIPSATVSIPTRYVHSPSEMIAPDDVEATVDLLIRYLGA”, which “soluble on expression in E. coli” value is on record?
**A.** soluble

**Q.** For “MSNEDSLPPFTLFGLDDVENYGLVTEADNSLPLDIHNQVFQLVEKGNQSFKESRFEEAISSYSKANSIKPLDPIVLGNRSAAYIRFGQYLKQRSASISEYKPLNGFDMSMLGELALKDADKLMSLQSSLVKSYITKACALMLLERYEVARDTILSGLQIDPFSGPLRSNLQELEKVMPNSMRKTHGMAERSDDFDCTVCLKLLYEPATTPCGHTFCRSCLFQSMDRGNKCPLCRTVIFMTPRTCAVSVTLNNIIEKNFPEEYAERKSEQDTLVHLGNESMPLFVMDVIIPCQKLSLHIFEPRYRLMVRRIMEGNHRMGMVALDSATGSPVDVACEVEITECDPLPDGRFVLELESHRRCRIVKAWDQDGYRVAEVEWVKDIPPQSEQGKADLRELTTSAASFARSWLDRAKEAARQGDRRRLEILLNVESMIPTPQDPERFSFWLATLTDRRPSERLELLRLQDTGEVLDYRLVQIARQISLFHQSLSFDC”, which “soluble on expression in E. coli” value is on record?
**A.** not soluble

**Q.** With “VKRGLKPIVGLNQHIQQISPEQMGIRLDPDSLPIELRELANKHNAMLDRLQTGFRRLSEFSSDIAHELKTPLTNITTQNQVILGACRTSEEYQDAIASTLEELNRITKTINDLLYIAKAENKLIHRHDEVFAVQEEIDRLVAYFEILAEDAEVRIVSSGDGQLYM” as the sequence, how does the “soluble on expression in E. coli” value read?
**A.** not soluble

**Q.** Which “soluble on expression in E. coli” value does the source give for “GQVIARHKVREFNINPVNTPTKSKLHPSVFYDVFPGDKEPAVLSDNDPRLEVKLTESLFSKYKGNVNTEPTENMLVAVDHYAGQLLSLDIPTSELTLKEALYGVDGLEPIDITTSAGFPYVSLGIKKRDILNKETQDTEKMKFYLDKYGIDLPLVTYIKDELRSVDKVRLGKSRLIEASSLNDSVNMRMKLGNLYKAFHQNPGVLTGSAVGCDPDVFWSVIPCLMDGHLMAFDYSNFDASLSPVWFVCLEKVLTKLGFAGSSLIQSICNTHHIFRDEIYVVEGGMPSGCSGTSIFNSMINNIIIRTLILDAYKGIDLDKLKILAYGDDLIVSYPYELDPQVLATLGKNYGLTITPPDKSETFTKMTWENLTFLKRYFKPDQQFPFLVHPVMPMKDIHESIRWTKDPKNTQDHVRSLCMLAWHSGEKEYNEFIQKIRTTDIGKCLILPEYSVLRRRWLDLFHHHHHH” here?
**A.** soluble

**Q.** For “MKVNNTIVVSIGQAGNQIAASFWKTVCLEHGIDPLTGQTAPGVAPRGNWSSFFSKLGESSSGSYVPRAIMVDLEPSVIDNVKATSGSLFNPANLISRTEGAGGNFAVGYLGAGREVLPEVMSRLDYEIDKCDNVGGIIVLHAIGGGTGSGFGALLIESLKEKYGEIPVLSCAVLPSPQVSSVVTEPYNTVFALNTLRRSADACLIFDNEALFDLAHRKWNIESPTVDDLNLLITEALAGITASMRFSGFLTVEISLRELLTNLVPQPSLHFLMCAFAPLTPPDRSKFEELGIEEMIKSLFDNGSVFAACSPMEGRFLSTAVLYRGIMEDKPLADAALAAMREKLPLTYWIPTAFKIGYVEQPGISHRKSMVLLANNTEIARVLDRICHNFDKLWQRKAFANWYLNEGMSEEQINVLRASAQELVQSYQVAEESGAKAKVQDSAGDTGMRAAAAGVSDDARGSMSLRDLVDRRR”, which “soluble on expression in E. coli” value is on record?
**A.** soluble

**Q.** With “MGSDKIHHHHHHVSQLTPWQHYQQDLTRDDFSHDAAQEQAVKSLQRVYDELIVAAKPASSVSKLFSAIGIKSTPTPVKGLYLWGGVGRGKTYLMDTFFDALPTDRKLRAHFHRFMHQIHNDLGELKGVQDPLLTIAKKMASQYQIICFDEFFVSDITDAMLLGTLFQALFKEGVALVATSNIIPDELYKNGLQRVRFLPAIALINQHCEILNVDSGIDYRLRTLEQAEIYHYPLDEQADINLLHYFDQLAPESEKLTAPIDVDGRAIRIRQQSQGVLLINFRDLCDGPRSQRDYMEMACLYHTVLVSGLEQMGSQQTGDDIARRFLAMVDEFYERNVKLIISAQVELEHIYTDGQLNFEFRRCRSRLIEMQSREYLALEHLP” as the sequence, how does the “soluble on expression in E. coli” value read?
**A.** not soluble

**Q.** Which “soluble on expression in E. coli” value does the source give for “MSLNILIVGGNGGIGLAMVKEALVRFPQAQIHATYRRTKSDYEHSALIWHQVDVTDETQVKNLSQAVNSIDWVINCVGMLHTPNKGPEKNLRMVEPDFFLQNIAVNTLPSMLLAKYFTPLLKCSGAPKFAVVSAKVGSISDNHLGGWYSYRASKAALNMFLKTMSIEWQRTLKNGVVLALHPGTTDTALSEPFQANVPEGKLFTPERVASDLMGQIVKAAPQDSGAFLTYDGEREGHHHHHH” here?
**A.** soluble

**Q.** For “MKKVVTVCPYCASGCKINLVVDNGKIVRAEAAQGKTNQGTLCLKGYYGWDFINDTQILTPRLKTPMIRRQRGGKLEPVSWDEALNYVAERLSAIKEKYGPDAIQTTGSSRGTGNETNYVMQKFARAVIGTNNVDCCARVCHGPSVAGLHQSVGNGAMSNAINEIDNTDLVFVFGYNPADSHPIVANHVINAKRNGAKIIVCDPRKIETARIADMHIALKNGSNIALLNAMGHVIIEENLYDKAFVASRTEGFEEYRKIVEGYTPESVEDITGVSASEIRQAARMYAQAKSAAILWGMGVTQFYQGVETVRSLTSLAMLTGNLGKPHAGVNPVRGQNNVQGACDMGALPDTYPGYQYVKDPANREKFAKAWGVESLPAHTGYRISELPHRAAHGEVRAAYIMGEDPLQTDAELSAVRKAFEDLELVIVQDIFMTKTASAADVILPSTSWGEHEGVFTAADRGFQRFFKAVEPKWDLKTDWQIISEIATRMGYPMHYNNTQEIWDELRHLCPDFYGATYEKMGELGFIQWPCRDTSDADQGTSYLFKEKFDTPNGLAQFFTCDWVAPIDKLTDEYPMVLSTVREVGHYSCRSMTGNCAALAALADEPGYAQINTEDAKRLGIEDEALVWVHSRKGKIITRAQVSDRPNKGAIYMTYQWWIGACNELVTENLSPITKTPEYKYCAVRVEPIADQRAAEQYVIDEYNKLKTRLREAALA”, which “soluble on expression in E. coli” value is on record?
**A.** soluble

**Q.** Which “soluble on expression in E. coli” value does the source give for “MVQLNGKVAIVTGGAKGIGKAITVALAQEGAKVVINYNSSKEAAENLVNELGKEGHDVYAVQADVSKVEDANRLVEEAVNHFGKVDILVNNAGITRDRTFKKLNREDWERVIDVNLSSVFNTTSAVLPYITEAEEGRIISISSIIGQAGGFGQTNYSAAKAGMLGFTKSLALELAKTNVTVNAICPGFIDTEMVAEVPEEVRQKIVAKIPKKRFGQADEIAKGVVYLCRDGAYITGQQLNINGGLYM” here?
**A.** not soluble
